Experiment [1] deals with T1, Recombinant Human DLL4 (R&D Systems Cat#1506-D4/CF) (human, UniProt Q9NR61 27-529).
T1 construct: Bought recombinant protein; also called rHuman DLL4; delta-like protein 4
The experiment in a line: MSD Multispot ECL, antigen spotted on plate, Fab 230 nM; blank spot 1656.

In experiment [2] the target is T2, rHuman Notch-1/Fc Chimera, CF (R&D Systems Cat#3647-TK) (human, UniProt P46531 19-526).
T2 construct: Bought reagent; Fc part of the bought chimera not given
The description is as above.

Experiment [3] deals with T3, rHuman Erythropoietin R/Fc Chimera, CF (R&D Systems Cat#963-ER) (human, UniProt P19235 25-250).
T3 construct: Bought reagent; also called EPO R/Fc; EPO R; Fc part of the bought chimera not given
T3 sequence (looked up): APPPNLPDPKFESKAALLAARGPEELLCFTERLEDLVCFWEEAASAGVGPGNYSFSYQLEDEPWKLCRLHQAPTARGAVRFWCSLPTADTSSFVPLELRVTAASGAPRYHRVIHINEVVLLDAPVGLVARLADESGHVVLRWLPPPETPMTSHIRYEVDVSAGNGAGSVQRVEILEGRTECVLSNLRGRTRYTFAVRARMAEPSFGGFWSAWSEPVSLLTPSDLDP
The description is as above.

Experiment [4] addresses T4, rHuman IGF-1 sR, (IGF-1 sR), CF (R&D Systems Cat#391-GR) (human, UniProt P08069 31-932).
T4 construct: Bought soluble receptor; also called insulin-like growth factor-1 soluble receptor
The description is as above.

Experiment [5] addresses T1, Recombinant Human DLL4 (R&D Systems …). The experiment in a line: MSD Multispot ECL, antigen spotted on plate, Fab 57.5 nM; blank spot 954.
For experiment [6], the target named is T2, rHuman Notch-1/Fc Chimera, CF (R&D …). Described as above.
The target in experiment [7] is T3, rHuman Erythropoietin R/Fc Chimera, CF …. Described as above.
Experiment [8] addresses T4, rHuman IGF-1 sR, (IGF-1 sR), CF (R&D …). Described as above.
The target in experiment [9] is T1, Recombinant Human DLL4 (R&D Systems …). The experiment in a line: MSD Multispot ECL, antigen spotted on plate, Fab 920 nM; blank spot 4082.
Experiment [10] has as its target T2, rHuman Notch-1/Fc Chimera, CF (R&D …). The description is as above.
Experiment [11] has as its target T3, rHuman Erythropoietin R/Fc Chimera, CF …. The experiment is described as above.
Experiment [12] deals with T4, rHuman IGF-1 sR, (IGF-1 sR), CF (R&D …). Described as above.
The target of experiment [13] is T1, Recombinant Human DLL4 (R&D Systems …). The experiment in a line: MSD Multispot ECL, antigen spotted on plate, Fab 14.375 nM; blank spot 738.
For experiment [14], the target named is T2, rHuman Notch-1/Fc Chimera, CF (R&D …). The experiment is described as above.
The target in experiment [15] is T3, rHuman Erythropoietin R/Fc Chimera, CF …. The description is as above.
The target in experiment [16] is T4, rHuman IGF-1 sR, (IGF-1 sR), CF (R&D …). The description is as above.
Experiment [17] concerns the target T5, Recombinant Human DLL4 (R&D Systems Cat#1506-D4/CF) (human, UniProt Q9NR61 27-524).
T5 construct: it includes the signal peptide (amino acids 1-25), the transmembrane region and the cytoplasmic domain; also called delta-like protein 4; rHuman DLL4
The experiment in a line: Multispot ECL (MSD), antigen spotted on plate, Fab 15 nM; blank spot 536.

Experiment [18] deals with T6, rHuman CD44/Fc Chimera, CF (R&D Systems Cat#3660-CD) (human, UniProt P16070 21-220).
T6 construct: Bought recombinant protein; Fc part of the bought chimera not given
Described as above.

The target in experiment [19] is T7, rHuman ErbB2/Fc Chimera, CF (R&D Systems Cat#1129-ER) (human, UniProt P04626 23-652).
T7 construct: Bought recombinant protein; also called human epidermal growth factor 2 receptor; Fc part of the bought chimera not given
The description is as above.

Experiment [20] has as its target T8, rHuman IGF-1 sR, (IGF-1 sR), CF (R&D Systems Cat#391-GR) (human, UniProt P08069 31-932).
T8 construct: Bought soluble receptor; also called insulin-like growth factor-1 soluble receptor
Described as above.

Experiment [21] concerns the target T5, Recombinant Human DLL4 (R&D Systems …). The experiment in a line: Multispot ECL (MSD), antigen spotted on plate, Fab 3.75 nM; blank spot 191.
The target of experiment [22] is T6, rHuman CD44/Fc Chimera, CF (R&D Systems …). The description is as above.
The target in experiment [23] is T7, rHuman ErbB2/Fc Chimera, CF (R&D …). The experiment is described as above.
Experiment [24] has as its target T8, rHuman IGF-1 sR, (IGF-1 sR), CF (R&D …). The description is as above.
Experiment [25] concerns the target T5, Recombinant Human DLL4 (R&D Systems …). Put plainly: Multispot ECL (MSD), antigen spotted on plate, Fab 0.9375 nM; blank spot 153.
In experiment [26] the target is T6, rHuman CD44/Fc Chimera, CF (R&D Systems …). The description is as above.
Experiment [27] addresses T7, rHuman ErbB2/Fc Chimera, CF (R&D …). The experiment is described as above.
For experiment [28], the target named is T8, rHuman IGF-1 sR, (IGF-1 sR), CF (R&D …). The experiment is described as above.
Experiment [29] addresses T5, Recombinant Human DLL4 (R&D Systems …). Put plainly: Multispot ECL (MSD), antigen spotted on plate, Fab 60 nM; blank spot 1433.
Experiment [30] deals with T6, rHuman CD44/Fc Chimera, CF (R&D Systems …). Described as above.
The target in experiment [31] is T7, rHuman ErbB2/Fc Chimera, CF (R&D …). The description is as above.
The target in experiment [32] is T8, rHuman IGF-1 sR, (IGF-1 sR), CF (R&D …). Described as above.

B1: Fab VH1-46_IGHD3-10*01_IGHJ4*01 & L12_IGKJ1*01 (Fab, V domains shown)
VH: QVQLVQSGAEVKKPGASVKVSCKASGYTFTSYYMHWVRQAPGQGLEWMGIINPSGGSTSYAQKFQGRVTMTRDTSTSTVYMELSSLRSEDTAVYYCAREYYYGSGSYYNDYFDYWGQGTLVTVSS
VL: not shown
notes: Tested as a Fab made in E. coli; VH was cloned into Plasmid A (CH1 with His6 and Flag tags) and the kappa VL into Plasmid C (kappa CL)
On to B1, for which the ECL signal in [1] turned out to be 119000; in experiment [2], 9740; in experiment [3], 6950; in experiment [4] it was 4760; in experiment [5] it was 144000; in experiment [6] it was 5890. Besides, the ECL signal in experiment [7] worked out at 4040; in [8] it was 2830; in experiment [9], 73600; in experiment [10], 20100; in experiment [11], 16400; in experiment [12], 10200. Besides, the ECL signal in [13] stood at 125000; in experiment [14], 4210; in experiment [15], 2720; in experiment [16], 1750.

B2: Fab VH1-3_IGHD4-23*01_IGHJ4*01 & L12_IGKJ1*01 (Fab, V domains shown)
VH: QVQLVQSGAEVKKPGASVKVSCKASGYTFTSYAMHWVRQAPGQRLEWMGWSNAGNGNTKYSQEFQGRVTITRDTSASTAYMELSSLRSEDMAVYYCARDDYGGNSDYFDYWGQGTLVTVSS
VL: not shown
Turning to B2, the ECL signal in [17] amounted to 7730; in experiment [18] it was 748; in [19], 740; in experiment [20], 859; in experiment [21], 1570; in [22] it was 307. Moreover, the ECL signal came to 291 in experiment [23]; 314 in experiment [24]; 453 in [25]; 251 in [26]; 268 in experiment [27]; 204 in [28]. Further, the ECL signal in [29] is 17300; in experiment [30], 2360; in [31], 2160; in experiment [32], 2670.

Source of the values: patent publication US20120316071A1 (published 2012).
